Measured values reported in paper PMC9035363.

Experiments:
[1] = biological target: SARS-CoV-2 S B.1.1.7 on CHO cells (SARS-CoV-2) (UniProt P0DTC2)
[2] = biological target: SARS-CoV-2 S B.1.351 on CHO cells (SARS-CoV-2) (UniProt P0DTC2)

LY-CoV1404 (bebtelovimab), full-length human IgG1 mAb (antibody)
VSV pseudovirus neutralisation IC50 [1]: 1 ng/mL | VSV pseudovirus neutralisation IC90 [1]: 9 ng/mL | lentiviral pseudovirus neutralisation IC50 [1]: 4 ng/mL | lentiviral pseudovirus neutralisation IC90 [1]: 11 ng/mL | VSV pseudovirus neutralisation IC50 [2]: 2 ng/mL | VSV pseudovirus neutralisation IC90 [2]: 9 ng/mL | lentiviral pseudovirus neutralisation IC50 [2]: 3 ng/mL | lentiviral pseudovirus neutralisation IC90 [2]: 9 ng/mL
